Assay results: US20230151110A1 (HUTCHISON MEDIPHARMA, published 2023)
Substitutions are numbered along the chain they refer to. In names and notes the source's numbering stands.

B1: control antibody Hu5F9 (antibody, V domains shown)
VH: QVQLVQSGAEVKKPGASVKVSCKASGYTFTNYNMHWVRQAPGQRLEWMGTIYPGNDDTSYNQKFKDRVTITADTSASTAYMELSSLRSEDTAVYYCARGGYRAMDYWGQGTLVTVSS
VL: DIVMTQSPLSLPVTPGEPASISCRSSQSIVYSNGNTYLGWYLQKPGQSPQLLIYKVSNRFSGVPDRFSGSGSGTDFTLKISRVEAEDVGVYYCFQGSHVPYTFGQGTKLEIK
B2: chimeric antibody Ch-125G4-m35 (antibody, V domains shown)
VH: QVQLQQSGTELAKPGASVKMSCKASGYTFTSYYMHWVKQRPGQILEWIGYIDPANDYSDYNQNFKDKATLTADKSSRTTYMQLTSLTSEDSAVYYCARLGYGQSSPFDYWGQGTTLIVSS
VL: DIKMTQSPSSMYASVGERVTITCKASQDIHNYLSWFQQKPGKSPKTLIYRAKRLVEGVPLRFSGSGSGQDYSLTISSLEYEDMGIYFCLQYDELYTFGGGTRLEIK
notes: Chimeric antibody with human IgG4 (S228P) heavy chain constant region and human kappa light chain constant region; PTM sites mutated (NSS to QSS in the heavy chain, DG to EG in the light chain); also called Ch-125G4m-m35; 125G4A4m
B3: hybridoma-derived antibody 125G4A4 (antibody, V domains shown)
VH: B2 VH with Q103N
VL: B2 VL with E56D
notes: Mouse antibody purified from hybridoma supernatant on Protein A
B4: Hu-125G4A4m-43 (antibody, V domains shown)
VH: QVQLVQSGAEVKKPGSSVKVSCKASGYTFTSYYMHWVRQAPGQGLEWMGYIDPANDYSDYNQNFKDRVTITADKSTRTTYMELTSLRSEDTAVYYCARLGYGQSSPFDYWGQGTTVTVSS
VL: DIQMTQSPSSLSASVGDRVTITCKASQDIHNYLSWFQQKPGKAPKSLIYRAKRLVEGVPSRFSGSGSGQDYTLTISSLQPEDFATYYCLQYDELYTFGQGTRLEIK
notes: Humanized antibody, IgG4 S228P (IgG4P) subtype
B5: Hu-125G4A4m-50 (antibody, V domains shown)
VH: B4 VH with V68A, I70L
VL: B4 VL with Q3K, S46T, S60L, Y87F
notes: as for B4
B6: humanized antibody HMA02h14-48 (antibody, V domains shown)
VH: B4 VH with V68A, I70L
VL: B4 VL with Q69T
notes: Humanized antibody, IgG4 S228P (IgG4P) subtype; also called Hu-125G4A4m-48; Hu-125G4A4-48
B7: Hu-125G4A4m-44 (antibody, V domains shown)
VH: B4 VH
VL: B4 VL with Q3K, S46T, S60L, Y87F
notes: as for B4
B8: Hu-125G4A4m-46 (antibody, V domains shown)
VH: B4 VH with T79A
VL: B4 VL
notes: as for B4
B9: Hu-125G4A4m-45 (antibody, V domains shown)
VH: B4 VH with T79A
VL: B4 VL with Q69T
notes: as for B4
B10: Hu-125G4A4m-49 (antibody, V domains shown)
VH: B4 VH with V68A, I70L
VL: B4 VL
notes: as for B4
B11: Hu-125G4A4m-47 (antibody, V domains shown)
VH: B4 VH with T79A
VL: B4 VL with Q3K, S46T, S60L, Y87F
notes: as for B4

Columns and labels:
[1] = target: T1, human CD47 protein on the cell surface (human, UniProt Q08722 19-323); experiment: FACS on REC-1 cells (endogenous human CD47); negative control
T1 construct: whole, on cells; One molecule is used for overexpressed (CHO-K1) and endogenous (Raji, Toledo, REC-1, red blood cells) human CD47; the cell is named under assay; also called CD47 on the surface of Raji, Toledo, REC-1 cells; CD47 on the surface of human red blood cells

[2] = target: T1, human CD47 protein on the cell surface; experiment: FACS on Raji cells (endogenous human CD47); negative control
[3] = target: CD47 on the surface of cynomolgus monkey B cells (cynomolgus monkey); experiment: FACS on cynomolgus monkey B cells, antibody 66.7 nM; negative control
[4] = target: T1, human CD47 protein on the cell surface; experiment: FACS on Toledo cells (endogenous human CD47); negative control
[5] = target: T2, CD47 on the surface of cynomolgus monkey B cells (cynomolgus monkey, UniProt A0A5F8AK49 19-323 (rhesus entry)); experiment: FACS on cynomolgus monkey B cells, antibody 66.7 nM
T2 construct: whole, on cells; also called cynomolgus monkey CD47
From the text: The cells were washed three times and analyzed by flow cytometry.

[6] = target: T1, human CD47 protein on the cell surface; experiment: FACS on CHO-K1 cells overexpressing human CD47
Method: A human CD47 protein (NCBI accession number: NP_001768.1) was overexpressed in hamster ovary cell line CHO-K1 to establish CHO-K1 cell line overexpressing the human CD47 protein. […] After washing twice with iced PBS, the cells were incubated with an iFluor647-labeled goat anti-mouse IgG (H+L) antibody (Genscript) at 4° C. in the dark for 40 minutes. The cells were washed twice with iced PBS, and then the fluorescence signal was detected by Calibur (BD Biosciences) flow cytometry, and according to the average fluorescence intensity (MFI) of the signal, GraphPad was used for fitting a concentration dependent curve, and the EC₅₀ was calculated.

[7] = target: T3, recombinant protein hCD47-Fc containing the extracellular domain of human CD47 fused with the Fc fragment of … (human, UniProt Q08722 19-139); experiment: competition ELISA: hCD47-Fc coated, SIRPα-His 2.5 µg/ml as competitor ligand, anti-His-HRP
T3 construct: extracellular domain; Bought reagent; also called ACROBiosystems Cat: CD7-H5256; not shown: Fc fragment of human IgG

[8] = target: T1, human CD47 protein on the cell surface; experiment: FACS on Raji cells (endogenous human CD47), n = 3
Method: (§1) Human CD47 was endogenously expressed on the cell surface of human Burkitt lymphoma cell line Raji. […] The diluted antibodies were mixed with and co-incubated with Raji cells (purchased from ATCC) (5*10⁵ cells/well) at 4° C. for 1 hour. […] The cells were washed three times with PBS containing 2% fetal bovine serum (FBS), and then the fluorescence signal was detected by CantoII (BD Biosciences) flow cytometry, and according to the average fluorescence intensity (MFI) of the signal, GraphPad was used for fitting a concentration dependent curve, and the EC₅₀ was calculated.

[9] = target: T1, human CD47 protein on the cell surface; experiment: FACS on Raji cells (endogenous human CD47)
Method: as §1

[10] = target: T4, human CD47-His fusion protein (human, UniProt Q08722 19-139); experiment: SPR (Biacore T200): antibody captured by anti-human Fc on CM5, human CD47-His as analyte, 1:1 Langmuir fit
T4 construct: Bought reagent; also called ACROBiosystems Cat: CD7-H5227; not shown: His tag

[11] = target: T1, human CD47 protein on the cell surface; experiment: FACS on REC-1 cells (endogenous human CD47)
Method: as §1

[12] = target: T1, human CD47 protein on the cell surface; experiment: FACS on Toledo cells (endogenous human CD47)
Method: as §1

[13] = target: T3, recombinant protein hCD47-Fc containing …; experiment: competition ELISA as in Example 1.3: hCD47-Fc coated, SIRPα-His as competitor ligand, anti-His-HRP
Method: The recombinant protein hCD47-Fc containing the extracellular domain of human CD47 fused with the Fc fragment of human IgG (ACROBiosystems, Cat: CD7-H5256) was coated onto a 96-well plate and incubated overnight at 4° C. After the plate was washed 3 times with PBST (PBS containing 0.5% Tween-20), PBST containing 1% BSA was added for blocking the plate for 2 hours. […] After the 96-well plate was incubated at 37° C. for 30 minutes, the plate was washed 5 times with PBST, and a TMD (Surmodics, Cat: TMBW-1000-01) developing solution was added, and was incubated in the dark for 15 minutes. 2N H₂SO₄ was added to terminate the color-developing reaction. OD₄₅₀ was read on a microplate reader.

[14] = target: T1, human CD47 protein on the cell surface; experiment: FACS on human red blood cells (endogenous CD47)
Method: The cells were washed three times with PBS containing 2% fetal bovine serum (FBS), and then the fluorescence signal was detected by Canto II (BD Biosciences) flow cytometry. According to the average fluorescence intensity (MFI) of the signal, GraphPad was used for fitting a concentration dependent curve, and the EC₅₀ was calculated.

Row | Molecule | Max MFI [5] | Max MFI compared with Ch-125G4m-m35 value, % [5] | also measured
1 | negative isotype control antibody (isotype), human IgG4P |  |  | Max MFI [1]: 265 MFI; Max MFI [2]: 175 MFI; Max MFI [3]: 53 MFI; Max MFI [4]: 50 MFI
2 | B1 | 4120 MFI | 90% | 
3 | B2 | 4550 MFI | 100% | 
4 | B3 |  |  | EC50 [6]: 0.22 nM; IC50 [7]: 3.06 nM; EC50 [8]: 0.84 nM
5 | B4 | 3260 MFI | 72% | 
6 | B5 | 4840 MFI | 106% | 
7 | B6 | 4200 MFI | 92% | EC50 [9]: 1.2 nM; Kd [10]: 0.777 nM; EC50 [11]: 0.6 nM; EC50 [12]: 2.2 nM; IC50 [13]: 1.58 nM; EC50 [14]: 3.9 nM
8 | B7 | 4510 MFI | 99% | 
9 | B8 | 2520 MFI | 55% | 
10 | B9 | 2630 MFI | 58% | 
11 | B10 | 4080 MFI | 90% | 
12 | B11 | 4100 MFI | 90% | 
